The supplement of paper PMC10126150
± gives the standard deviation of the averaged measurements.

Tested on: ATP
Test: switch fluorescence ratio, 500 uM ATP over buffer (Cy3 cluster intensity, sum of 5 cycles each) (fold (ratio)); higher = stronger signal-on switching upon ATP binding; sequences stand for … in TCGTCGGCAGCGTCAGATGTGTATAAGAGACAGTTTTTTTTTTTTTTTTTTTTTTTTT…TC
Conditions: aptamer strand: ATP DNA aptamer (quencher-CACCTGGGGGAGTATTGCGGAGGAAGG + anchor), 100 nM annealed; ATP concentration: 500 uM
Method in brief: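 Imaging in selection buffer was followed by imaging after 15 min with 500 uM ATP at 22 °C, for Cy3-labelled switching-strand clusters annealed to 100 nM quencher-labelled ATP aptamer on a modified Illumina MiSeq flow-cell. Five of these buffer/ATP cycles ran, separated by NaOH stripping and re-annealing. The fluorescence ratio per cluster is summed target-cycle over summed buffer-cycle Cy3 intensity, averaged per switch-domain sequence; clusters outside 100-1000 RFU were removed.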
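Note: ATP exposure 15 min at 22 °C before imaging.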

Sequence | switch fluorescence ratio
TGAGGGGGAG | 1.01 ± 0.04
TGAGGGGGGA | 1 ± 0.036
TGAGGGTCCT | 1.02 ± 0.01
TGAGGGTTTT | 0.997 ± 0.02
TGAGGTACCG | 1.0235 ± 0.00091
TGAGGTCAAA | 1.07 ± 0.041
TGAGGTTTGT | 0.98 ± 0.028
TGAGGTTTTC | 1.02 ± 0.048
TGAGGTTTTT | 1.28 ± 0.59
TGAGTACCGG | 1.08 ± 0.1
TGAGTATATA | 1.02 ± 0.014
TGAGTATGGG | 0.973 ± 0.019
TGAGTCATAC | 1.05 ± 0.033
TGAGTCGAGC | 1.014 ± 0.0066
TGAGTCTAGG | 0.9979 ± 0.0026
TGAGTCTGCT | 0.998 ± 0.087
TGAGTGAGGT | 0.959 ± 0.016
TGAGTGCCGG | 1.18 ± 0.25
TGAGTGGCTC | 0.9793 ± 0.0053
TGAGTGTCTG | 0.966 ± 0.019
TGAGTGTGCT | 0.972 ± 0.011
TGAGTGTTTT | 0.997 ± 0.027
TGAGTTAGAT | 1 ± 0.011
TGAGTTCGAA | 1 ± 0.028
TGAGTTTGGC | 0.9862 ± 0.0013

Sequence | switch fluorescence ratio
TGATAAAGGT | 0.997 ± 0.015
TGATAATAGA | 0.9953 ± 0.0011
TGATAATATT | 0.992 ± 0.011
TGATAATCGG | 0.997 ± 0.036
TGATACAAGC | 1.05 ± 0.032
TGATACCTGT | 0.975 ± 0.068
TGATAGAGCC | 1.01 ± 0.023
TGATAGGACA | 0.983 ± 0.023
TGATAGGTGC | 1.19 ± 0.014
TGATATAGTG | 1.002 ± 0.01
TGATATATGG | 0.9872 ± 0.0081
TGATATCACT | 0.996 ± 0.043
TGATCACTAT | 1.007 ± 0.0076
TGATCGCTGG | 1.02 ± 0.042
TGATGAATTG | 1.04 ± 0.002
TGATGAGGAA | 0.97725 ± 0.00082
TGATGCAATT | 1.36 ± 0.24
TGATGCATAT | 1.1411 ± 0.0011
TGATGCTTTG | 0.998 ± 0.051
TGATGGAAGG | 0.958 ± 0.06
TGATGGAAGT | 0.986 ± 0.031
TGATGGATTG | 0.99 ± 0.028
TGATGGGATG | 1.01 ± 0.038
TGATGGGCGC | 1.026 ± 0.0036
TGATGGGGCA | 1.02 ± 0.021

Sequence | switch fluorescence ratio
TGATGGTAGG | 0.981 ± 0.031
TGATGGTTTA | 0.996 ± 0.03
TGATGTAGCA | 0.979 ± 0.033
TGATGTTACC | 1.06 ± 0.02
TGATGTTAGT | 1.01 ± 0.024
TGATGTTGAA | 0.99891 ± 0.00059
TGATTAAGCA | 0.999 ± 0.033
TGATTAGCAA | 1.26 ± 0.3
TGATTAGGGT | 1.05 ± 0.076
TGATTATAGG | 0.992 ± 0.01
TGATTCGTTC | 1.04 ± 0.033
TGATTCTTTT | 0.974 ± 0.037
TGATTGGTCA | 0.967 ± 0.012
TGATTTAAGT | 0.992 ± 0.05
TGATTTACAA | 1.05 ± 0.015
TGATTTGGGA | 0.971 ± 0.015
TGATTTGTAT | 0.968 ± 0.018
TGATTTGTTT | 1 ± 0.04
TGATTTTATT | 0.974 ± 0.011
TGCAAATTCG | 0.999 ± 0.022
TGCAAATTTT | 1 ± 0.036
TGCAACGAGG | 0.998 ± 0.035
TGCAACGTCG | 0.998 ± 0.019
TGCAAGAGTT | 1.01 ± 0.014
TGCACATGGG | 1.02 ± 0.015

Sequence | switch fluorescence ratio
TGCACGTTTT | 1.09 ± 0.07
TGCAGCTTGT | 1.0186 ± 0.00048
TGCAGGCCAA | 1.08 ± 0.026
TGCAGGGGGC | 1.02 ± 0.022
TGCAGGGGTG | 1.06 ± 0.022
TGCAGGGTGG | 1.05 ± 0.051
TGCATCGGGG | 0.983 ± 0.032
TGCATCTGAG | 1 ± 0.021
TGCATGTACC | 1.21 ± 0.051
TGCATGTATT | 1.012 ± 0.0039
TGCATGTGTC | 0.99 ± 0.035
TGCATTACCC | 1.25 ± 0.41
TGCATTCATT | 0.9937 ± 0.0093
TGCATTTAGG | 1.02 ± 0.032
TGCATTTGGG | 0.9893 ± 0.0031
TGCCAACAGA | 1.25 ± 0.39
TGCCAGGAGT | 1.05 ± 0.014
TGCCAGTACG | 1.064 ± 0.0044
TGCCAGTGCC | 1.04 ± 0.022
TGCCATTGTT | 0.942 ± 0.01
TGCCCCTGGC | 0.978 ± 0.042
TGCCCGGGGA | 1 ± 0.037
TGCCGAGATC | 1 ± 0.013
TGCCGCAGGT | 1.01 ± 0.043
TGCCGCCGGG | 1.03 ± 0.011
